Data as given in the supplement of paper PMC9732359.
± gives the uncertainty stated by the source.

Assay: protein stability index of a GFP-peptide fusion (yeast GPS) (PSI 1-4); higher = more stable; sorted into four equal gates, so the index is relative within each strain
Method in brief: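 Yeast carrying a pooled library were grown to mid-log phase in leucine-free medium. Each library plasmid expresses Cherry and has a tiled 17-residue yeast protein peptide fused downstream of GFP. Cells were sorted into four equal gates by GFP/Cherry ratio, and plasmids from each gate were PCR-amplified, Illumina-sequenced and assigned to strains by barcode. Summing, across gates, the read frequency times the gate number gave each peptide's protein stability index.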

Sequence	protein stability index (doa10∆)	protein stability index (pdr5∆)	protein stability index (san1∆)	protein stability index (ubr1∆)
VLPLGSVPEGTIVSNVE [RPL2A]	3.19 ± 0.12	3.33 ± 0.11	2.78 ± 0.18	3.12 ± 0.094
EFTKINTPLVGAAFKVI [YJL039C/NUP192]	1.63 ± 0.039	1.91 ± 0.044	1.6 ± 0.084	1.69 ± 0.037
QVEYALESISHAGTAIG [PRE9]	2.34 ± 0.077	2.33 ± 0.083	2.4 ± 0.082	2.52 ± 0.07
QYSLERNSPFWWTNSHH [PRP8]	2.56 ± 0.078	2.79 ± 0.065	2.4 ± 0.057	2.69 ± 0.052
FENCYLEGNDIHALAAK [FAS1]	2.83 ± 0.053	3.06 ± 0.049	2.88 ± 0.044	2.69 ± 0.041
ERTKNAQFIVISLRNNM [SMC4]	2.72 ± 0.13	1.3 ± 0.063	1.33 ± 0.093	1.73 ± 0.08
SLRRIRDEMSKAELPQW [MED8]	1.98 ± 0.071	2.36 ± 0.055	2.33 ± 0.072	1.92 ± 0.04
ESSKLMTVTKVSLPEGS [BRR2]	2.93 ± 0.22	2.33 ± 0.11	3.19 ± 0.1	2.63 ± 0.073
LTTAREHHSSVKYASPN [FAS2]	3.02 ± 0.065	3.11 ± 0.057	3.04 ± 0.041	3.06 ± 0.04
RQQAYKTAQTLDENLNS [YJL041W/NSP1]	2.84 ± 0.078	2.76 ± 0.079	3.12 ± 0.067	2.8 ± 0.05
NVGKPDQSIASGNTNGA [YOR098C/NUP1]	3 ± 0.2	2.09 ± 0.28	2.83 ± 0.085	2.93 ± 0.1
DVTPADDLKQKKEELVE [RPO31]	3.12 ± 0.16	3.25 ± 0.093	3.08 ± 0.15	3.24 ± 0.12
YLINGKRFKRKDNAKIS [SRP68]	1.36 ± 0.075	1.58 ± 0.096	1.75 ± 0.12	1.63 ± 0.049
GRTPNISNGTINIQKKL [SIR4]	2.37 ± 0.058	2.64 ± 0.048	2.58 ± 0.063	2.16 ± 0.041
FANYKLLLKKIIKDYVL [SRB4]	2.41 ± 0.069	2.24 ± 0.068	1.97 ± 0.09	1.86 ± 0.035
GENIDADNDGPRINNIS [SNF2]	3.44 ± 0.09	3.53 ± 0.11	3.28 ± 0.065	3.02 ± 0.09
LQHLRSRCHLVTKDTKK [SRP68]	2.93 ± 0.11	2.88 ± 0.11	2.93 ± 0.12	3.12 ± 0.056
AAAQAQSKIDLTKKKNE [SEM1]	2.9 ± 0.079	2.83 ± 0.096	2.94 ± 0.082	2.87 ± 0.083
LSIAFENGDYAACEKLL [RPN12]	3.13 ± 0.17	3 ± 0.12	3.16 ± 0.077	3.24 ± 0.12
NVPSTKFNAAPEENATE [SNF12]	3.21 ± 0.067	3.35 ± 0.07	3.17 ± 0.058	3.12 ± 0.055

Sequence	protein stability index (doa10∆)	protein stability index (pdr5∆)	protein stability index (san1∆)	protein stability index (ubr1∆)
AQKNTQSYGGRPYGVGL [PRE5]	3.38 ± 0.084	3.43 ± 0.075	3.23 ± 0.076	3.26 ± 0.058
SAINQYNRRQDKKNKRL [SNF2]	3.13 ± 0.083	3.34 ± 0.082	3.23 ± 0.074	3.25 ± 0.087
SPGSPAYSPKQDEQKHN [RPO21]	3.11 ± 0.15	3.15 ± 0.11	3.2 ± 0.11	3.27 ± 0.11
IAARRTGLLRGSQKTQD [RPL2A]	2.83 ± 0.095	2.73 ± 0.064	2.66 ± 0.075	2.68 ± 0.079
YMDCLLYDLRASYAKIE [SNU114]	1.84 ± 0.074	2.32 ± 0.076	1.81 ± 0.095	1.74 ± 0.092
ANMATVPSTTNVNMTVN [MED6]	2.92 ± 0.099	3.08 ± 0.084		2.93 ± 0.052
FSFGAATPSAKEASQED [YLR335W/NUP2]	3.29 ± 0.062	3.25 ± 0.074	3.12 ± 0.055	3.16 ± 0.087
DMLTWVDSNLPDDEKFT [RPC40]	2.92 ± 0.074	3.14 ± 0.063	2.56 ± 0.16	3.26 ± 0.074
TFSGALGKQSSSLLSRL [FAS2]	3.33 ± 0.097	3.23 ± 0.087	3.22 ± 0.065	2.93 ± 0.073
NLEFDSTNHPDYDVSKK [SRP14]	3.15 ± 0.092	3.25 ± 0.12	3.2 ± 0.048	3.15 ± 0.065
IEQEKQEQQEQDKKKKS [PRE6]	2.17 ± 0.069	1.82 ± 0.06	2.59 ± 0.077	1.59 ± 0.049
PSADGADKKDDSESNSE [ITC1]	2.83 ± 0.083	3.11 ± 0.065	3.34 ± 0.068	2.96 ± 0.068
PNNETSVLSSKPGSKPE [SIR3]	3.12 ± 0.11	3.04 ± 0.12	3.06 ± 0.082	2.96 ± 0.064
TFLPSYMKFSNKYLELC [RRI2]	2.25 ± 0.052	2.35 ± 0.052	2.37 ± 0.073	2.37 ± 0.04
HFVQEEPLAFYLEESFT [RGR1]	2.32 ± 0.044	2.43 ± 0.039	2.67 ± 0.04	2.69 ± 0.031
ILSTTLDPTDDEGHVLK [SIN4]	2.58 ± 0.15	2.64 ± 0.11	3.01 ± 0.14	3 ± 0.12
SVAEKEEIRSQIDHFKS [SWI3]	1.73 ± 0.046	2.42 ± 0.084	2.8 ± 0.07	2.65 ± 0.055
FPQYKLTTFANQVMMDR [ARP7]	2.6 ± 0.096	2.19 ± 0.071	2.03 ± 0.13	2.4 ± 0.06
PLAKKQTVRLIKDLQRA [SIR2]	2.77 ± 0.08	3.01 ± 0.07	2.77 ± 0.057	2.97 ± 0.062
